The record followed here is publication PMC3025461.

Experiment [1] has as its target S. cerevisiae Smc1 hinge protein (S480-E681), wild type (S. cerevisiae) (UniProt P32908). As to the kind of experiment: ITC.
Experiment [2] deals with S. cerevisiae Smc1DD hinge protein (S480-E681; K554D, K661D) (S. cerevisiae) (UniProt P32908). As to the kind of experiment: ITC. (In general: ITC needs no label: the signal is the heat of the interaction.)
In experiment [3] the target is S. cerevisiae Smc3-FLAG hinge protein (S. cerevisiae). As to the kind of experiment: pull-down.

Broadly, the Kd is the free concentration of one partner at which half of the binding sites on the other are occupied at equilibrium, for simple one-to-one binding. Low values mean higher affinity, high ones lower affinity. With “S. cerevisiae Smc3 hinge protein (T495-L695), wild type (domain or fragment)”, the dissociation constant Kd in experiment [1] amounted to 22 nM.

Consider “S. cerevisiae Smc3AAA hinge protein (T495-L695; R665A, K668A, R669A) (domain or fragment)”, for which, in experiment [1], the Kd turned out to be 24 nM. In experiment [2], this molecule returned a dissociation constant (Kd) of 29 nM and a reduction in dH against wild-type Smc1/Smc3 of 4 kcal/mol.

B1: S. cerevisiae Smc1 hinge protein (S480-E681), wild type (domain or fragment)
chain: SANNQEYDLNFKLRETLVKIDDLSANQRETMKERKLRENIAMLKRFFPGVKGLVHDLCHPKKEKYGLAVSTILGKNFDSVIVENLTVAQECIAFLKKQRAGTASFIPLDTIETELPTLSLPDSQDYILSINAIDYEPEYEKAMQYVCGDSIICNTLNIAKDLKWKKGIRGKLVTIEGALIHKAGLMTGGISGDANNRWDKEE
In experiment [3], B1 returned a half time of 30 min and a half-life of the hinge dimer of 15 to 30 min.
